# Assay results reported in the RNAGym collection of RNA variant scans (doi:10.1073/pnas.2313332121).
# B1: TPR t1 (parent)
# chain: GACCAAUCUGCCCUCAGAGCUCGAGAACAUCUUCGGAUGCAGAGGAGGCAGGCUUCGGUGGCGCGAUAGCGCCAACGUCCUCAACCUCCAAUGCAUCCCACCACAUGAUGAUGCCUGAAGAGCCUUGGUUUUUUG
# Variants of: B1
# Assay: polymerase ribozyme fitness, log enrichment relative to wild type (log ratio); higher = more active; in vitro selection for triplet polymerase activity
# In short: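 A heterodimeric triplet polymerase ribozyme had each of its subunits mutagenized by PCR into a library, which was transcribed. One round of in vitro selection, done in triplicate, annealed each library with a biotinylated primer, its partner subunit and triplets, then incubated it frozen at −7 °C before gel excision of extended constructs, streptavidin-bead capture and RT-PCR. Fitness is the logarithm of genotype enrichment relative to wild-type enrichment, based on Illumina sequencing of inputs and outputs and inverse-variance-weighted replicate averages. A base-2 logarithm is used, and genotypes were kept only with ≥10 input reads and ≥1 read per output.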
row,Variant,polymerase ribozyme fitness (log ratio)
1,G48U C72A C97G,-5.25
2,G48U C88A,-0.373
3,G48U C88U,-1.36
4,G47A G60C G69U A119U,-2.55
5,G48C C101A G117A,-2.54
6,G48C C49A C88U A95G,-0.72
7,G48U U112C A118U,0.638
8,G47U A50U U59C C73A U78A,-2.43
9,G48A C53U C80U C124U,0.0289
10,G47A G52A G61C G120A,-4.97
11,G48U C101U,-1.59
12,G47C G48A C72U A91C C97U,-3.42
13,G47U C49U C62U G117U,-5.19
14,C49G A74C G113A,-2.39
15,G48A G110C,-4.33
16,G48C G93A C99A G113C,-7.38
17,G48A C82U U92A G110U,-6.7
18,G48U C82G U92G,-4.41
19,G48C A75G,-0.575
20,G47A G58U G110U G120A,-3.22
21,G48A C72A U116C,-1.09
22,C49A G69C A83C A84U,-4.35
23,G47A U112A,-0.273
24,G48A U59A,-0.703

row,Variant,polymerase ribozyme fitness (log ratio)
1,G47A G48A C53A G127A,-3.92
2,G48C C85A,-2.11
3,G48A C124U,1.15
4,G48U G71A C123A U126A,-2.04
5,G48A C56U C82U,-0.312
6,G48C C79G,-4.27
7,C49A C72A,0.275
8,C49A C72U,-1.37
9,G48U C72U C76U A105U,-3.61
10,G47C C102A G120U,-3.97
11,C49A G71U G120U,0.255
12,G47C G117U,-4.33
13,G47U G61A C85A,-1.18
14,G47C C49A G63U U78C C123G C124U,-4.24
15,G48A G69C,-1.33
16,G48A G69U,1.02
17,G48A G135U,-1.08
18,G47A G60U U133G,-0.844
19,G47U G120C,-0.748
20,G48U C104U,-0.515
21,G47U C85U,-1.98
22,G48U C49U G60C A84U U129A U134G,-1.92
23,C49A G69A G77A G122A,-4.61
24,G48U G52U C98U G117U,-6.54

row,Variant,polymerase ribozyme fitness (log ratio)
1,G48A C89U C124U,0.551
2,G47C C102U G110U U133A,-5.04
3,C49A C82A G110A,-1.04
4,G48C C97G,-4.14
5,C49A G117A,-1.89
6,G48U C89A U130A,-2.33
7,C49G C53G G69C C72U,-1.21
8,G47A G61A A84C,-1.29
9,G48C G52U G60A U109A G110U,-6.29
10,G47U U54C C70U U96C U116C U129C,-4.8
11,G47U U96C A118G,-1.69
12,C49G C56A,-2.63
13,G48U C79G,-3.52
14,G48A C114A,-2.8
15,C49A C70U,-1.18
16,G48U G71C,-1.77
17,G48C G71U,-2.47
18,G48C G71A,-1.65
19,G47C C53U C70A C124A,-1.6
20,G48U U87G U133G,-0.334
21,C49A G128C,-3.42
22,G48C U87A,-1.01
23,C49A G69C,-1.8
24,G47A G93U G113U C123U G135U,-6.04

row,Variant,polymerase ribozyme fitness (log ratio)
1,G48U G120C,-0.358
2,C49G C53A G57A C85A C88A C115G,-3.29
3,G47U G51U C124U,-3.46
4,G47C A100U,-2.4
5,G48A C64U U78C G107U,-6.15
6,G48U G61A C89A A119U,-2.48
7,G48U C56G C72U C86G,-2.89
8,C49A A83C A84U,-0.775
9,C49A G57U G60U G113A,-1.65
10,G47A U59G A91U G113A,-2.02
11,G48U A50G G61A C89U,-1.81
12,G48C C56U C85U U126G,-2.57
13,G47C C62G,-4.1
14,G47U G128U,-2.73
15,G48C C72U A90G U132A,-0.935
16,G47U G48A G52U,-2.97
17,G48C C94G C115U,-3.03
18,G47U A105C U106A,-1.48
19,C49A A50C C56A C79A U132A,-3.18
20,G47C A50C C72U C85G C88G C102U C123U,-7.42
21,G47A G69C C101U G122A,-3.07
22,G48U U54G U129A,-1.88
23,G48U C102U,-3.66
24,G48A C85G C89A U96C,-2.26

row,Variant,polymerase ribozyme fitness (log ratio)
1,G48A G63A U133G,-1.13
2,C49A C62G C76U,-5.79
3,C49A C82U G93C C99U G122U,-3.82
4,G47A G127C,-2.06
5,G48U G57U C76G U78A G117A,-2.42
6,C49A C64U A66C C80A G117A,-7.53
7,G47U C101A C104U,-2.34
8,G47C G69U C72U,-1.29
9,G48A U87A U96A,-1.88
10,G47U C70U C88U,-3.39
11,G47U C89U,-3.28
12,G48U G69U,-0.529
13,G48U G69A,-3.02
14,C49A G63A,-0.725
15,G48C A74C,-0.603
16,G47C G48A,-2.94
17,C49A A121U,1.97
18,G47C U55C C56A G69U C86U C123A U132A,-1.54
19,G48C G110A,-1.41
20,G47C C70U G93A C124A G127U G135U,-3.66
21,G47U A50G,-1.99
22,G48C C62A G65U U78C U130C,-4.95
23,G48U G61U C88U G110A,-1.73
24,G47C C115A,-2.22

row,Variant,polymerase ribozyme fitness (log ratio)
1,G48A C56U G93C C94G,-5.23
2,G47A U78A,-1.09
3,G47U U54A G120A,-0.309
4,C49A C62U A66G,-1.75
5,G47A C94A,-1.89
6,G47A C72U A121U,1.16
7,G48U U55G G69C G93U,-2.93
8,G47C C53U,-0.348
9,G47U G135C,-1.39
10,G47A C82G U106A,-1.42
11,G48A C56G C85G C94A A105G,-6.42
12,G48U C114G G117C G120C,-6.82
13,G48U U81G A91G G117U A119U,-7.47
14,G48A G61U U78C,-0.213
15,G48U G61U U112C,1.56
16,G48C C49G A84U C124U,-1.8
17,G48U G52U G63C,-2.05
18,C49A C53G C73U A74G A100U,-2.75
19,G48A C104U,-1.25
20,G48U C56U C70U A84G A91U,-4.84
21,G47A G110A,-1.67
22,G48U G57A C101U C124G,0.412
23,G48U C79U G135C,-1.81
24,G47U C49U C62U,-4.79

row,Variant,polymerase ribozyme fitness (log ratio)
1,G48U C72G C86A U125G G127C,-4.47
2,G47U C64A U116G C124U,-6.49
3,C49A C56U,0.0901
4,G48A C88G,-0.075
5,G48A G57A G60U G120A,-0.327
6,G48A C85G U106C,-1.25
7,G47A G69A G77C C99U C114G,-6.85
8,G47C C49A C70A U106G,-5.44
9,G48A C85U A105U,-2.08
10,G48U G61U G113A,-1.24
11,G47U G58A A83C,-2.55
12,C49A C85A,-1.43
13,G48C G63A G113U C123A,-5.64
14,C49A A74G,-0.173
15,G48U C53U G93C,-1.66
16,C49A U133A,-0.928
17,C49A U81A A90U C123U,-1.24
18,C49A G77C C88A,-1.31
19,G47U G120C U131G,0.253
20,C49G C56G U87A G117A,-4.51
21,C49G C64A G77U A83U G120U,-6.63
22,G47U A66C A95C,-4.27
23,G47U A118G U130G,-3.01
